# In article PMC7347513 (Cancer Immunology, Immunotherapy : CII, 2020):
# B1: biotinylated Fab C12.2 (Fab, V domains shown)
# VH: QITLKESGPTLVKPTQTLTLTCTFSGFSLSTSGVAVGWIRQPPGKALEWLALIYWDDDKHYSPSLKNRLTITKDTSKNQVVLTLTNMDPVDTATYYCARMTYSGSWYSFYYFDYWGQGTLVTVSS
# VL: EIVLTQSPATLSFSPGERATLSCRASQSVGSYLAWYQQRPGQAPRPLIYDATNRATGIPTRFSGSGSGTDFTLTISSLEPEDFATYYCQHRRTFGRGTKLEIK
# notes: source: E. coli TG1, biotinylated in vivo, purified (IMAC, Talon beads)
# B2: Fab C12/2 (Fab, V domains shown)
# VH: QITLKESGPTLVKPTQTLTLTCTFSGFSLSTSGVAVGWIRQPPGKALEWLALIYWDDDKHYSPSLKNRLTITKDTSKNQVVLTLTNMDPVDTATYYCARMTYSGSWYSFYYFDYWGQGTLVTVSS
# VL: EIVLTQSPATLSFSPGERATLSCRASQSVGSYLAWYQQRPGQAPRPLIYDATNRATGIPTRFSGSGSGTDFTLTISSLEPEDFATYYCQHRRTFGRGTKLEIK
# B3: Fab 2A2 (Fab, V domains shown)
# VH: QVQLVQSGAEVKKPGASVKVSCKASGYTFTDYYVHWVRQAPGQGLEWMGRINPNSGGTNYAQKFQGRVTMTRDASISTAYMELSRLRSDDTAVYYCAREMGYGGKSEDYWGQGTLVTVSS
# VL: SYVLTQPPSLSVAPGKTARIICGGNNIGSKSVHWYQQKPGQPPVLVVHDDGDRPSGIPERFSGSNSGITATLTITGVEAGDEADYYCQVWDYSSDHVIFGGGTKLTVL
# notes: source: E. coli TG1, purified (IMAC, Talon beads)
# B4: C1-ETA´ immunotoxin (HLA A*0201-restricted, HCMV-specific Fab antibody C1 coupled to Pseudomonas Exotoxin A) (Fab, V domains shown)
# VH: EVQLVQSGAEVKKPGSSVKVSCKASGGTFSSYAISWVRQAPGQGLEWMGGIIPIFGTANYAQKFQGRVTITADESTSTAYMELSSLRSEDTAVYYCARGLAAPDYFDYWGQGTLVTVSS
# VL: QSVVTQPPSVSGAPGQRVTISCTGSSSNIGAGYDVHWYQQLPGTAPKLLIYGNSNRPSGVPDRFSGSKSGTSASLAITGLQAEDEADYYCQSYDSSLSGPFYVFGTGTKVTVL
# notes: source: E. coli TG1
# B5: Fab C1 (Fab, V domains shown)
# VH: EVQLVQSGAEVKKPGSSVKVSCKASGGTFSSYAISWVRQAPGQGLEWMGGIIPIFGTANYAQKFQGRVTITADESTSTAYMELSSLRSEDTAVYYCARGLAAPDYFDYWGQGTLVTVSS
# VL: QSVVTQPPSVSGAPGQRVTISCTGSSSNIGAGYDVHWYQQLPGTAPKLLIYGNSNRPSGVPDRFSGSKSGTSASLAITGLQAEDEADYYCQSYDSSLSGPFYVFGTGTKVTVL
# notes: as for B3
# B6: Fab F3 (Fab, V domains shown)
# VH: QVQLVQSGAEVKKPGASVKVSCKASGYTFTSYYMHWVRQAPGQGLEWMGIINPSGGSTSYAQKFQGRVTMTRDTSTSTVYMELSSLRSEDTAVYYCASGITGAHDYWGQGTLVTVSS
# VL: QSVVTQPPSVSGAPGQRVTISCTGSSSNIGAGYDVHWYQQLPGTAPKLLIYENSIRPSGVPDRFSGSKSGTAASLAITGLQAEDEAEYYCQSYDNSLSGPNWVFGGGTKLTVL
# notes: as for B3
# B7: Fab C7 tetramer (Fab, V domains shown)
# VH: EVQLVQSGAEVKKPGASVKVSCKASGYTFTSYYMHWVRQAPGQGLEWMGIINPSDGSTSYAQKFQGRVTMTRDTSTSTAYMELSSLRSEDTAVYYCARYIGIMDVWGQGTTVTVSS
# VL: not shown
# notes: copies: 4 + 4
# B8: Fab C7 (Fab, V domains shown)
# VH: EVQLVQSGAEVKKPGASVKVSCKASGYTFTSYYMHWVRQAPGQGLEWMGIINPSDGSTSYAQKFQGRVTMTRDTSTSTAYMELSSLRSEDTAVYYCARYIGIMDVWGQGTTVTVSS
# VL: not shown
# notes: as for B3
# B9: Fab C5 (Fab, V domains shown)
# VH: EVQLVQSGAEVKRPGASVKVSCKASGYTFTNYDINWVRQATGQGLEWMGWMNPNSGNTGYAQKFQGRVTITADKSTSTAYMELSSLRSEDTAVYYCARQGRLRFLEWYMFDPWGQGTLVTVSS
# VL: DVVMTQSPLSLPVTPGEPASISCRSSQSLLHSNGYNYLDWYLQKPGQSPQLLIYLGSIRASGVPDRVTGSGSGTDFTLQISRVEAEDVGVYYCMQGLQTPYTFGQGTKLEIK
# notes: as for B3
# B10: biotinylated Fab C5 (Fab, V domains shown)
# VH: EVQLVQSGAEVKRPGASVKVSCKASGYTFTNYDINWVRQATGQGLEWMGWMNPNSGNTGYAQKFQGRVTITADKSTSTAYMELSSLRSEDTAVYYCARQGRLRFLEWYMFDPWGQGTLVTVSS
# VL: DVVMTQSPLSLPVTPGEPASISCRSSQSLLHSNGYNYLDWYLQKPGQSPQLLIYLGSIRASGVPDRVTGSGSGTDFTLQISRVEAEDVGVYYCMQGLQTPYTFGQGTKLEIK
# notes: as for B1
# B11: biotinylated Fab D10 (Fab, V domains shown)
# VH: EVQLVQSGGGVVQPGRSLRLSCAASGFTFSSYGMHWVRQAPGKGLEWVAVISYDGTNTDYADSVKGRFTISRDNSKNTLYLQMNSLRAEDTAVYYCARARGIGVSGTLYFDFWGQGTLVTVSS
# VL: EIVMTQSPGTLSLSPGERATLSCRASQSVSSSYLAWYQQKPGQAPRLLIYGASTRATGIPDRFSGSGSGTDFTLTINRLEPEDFAVYYCQQYGSSPGTFGQGTRLEIK
# notes: as for B1
# B12: Fab D10 (Fab, V domains shown)
# VH: EVQLVQSGGGVVQPGRSLRLSCAASGFTFSSYGMHWVRQAPGKGLEWVAVISYDGTNTDYADSVKGRFTISRDNSKNTLYLQMNSLRAEDTAVYYCARARGIGVSGTLYFDFWGQGTLVTVSS
# VL: EIVMTQSPGTLSLSPGERATLSCRASQSVSSSYLAWYQQKPGQAPRLLIYGASTRATGIPDRFSGSGSGTDFTLTINRLEPEDFAVYYCQQYGSSPGTFGQGTRLEIK
# notes: as for B3
# B13: Fab A6 (Fab, V domains shown)
# VH: EVQLVQSGAEVKKPGASVKVSCKASGYTFTSYYMHWVRQSPGQGLEWMGIINPSGGSTSYAQKFQGRVTMTRDTSTSTVYMELSSLRSEDTAVYYCARNGYCSSTSCYDAFDIWGQGTMVTVSS
# VL: QSALTQPASVSGSPGQSITISCTGTSSDVGGYNYVSWYQQHPGKAPKVLIYDVNQRISGVPDRFSGSKSGNTASLTISGLQAEDEADYYCCSYAGSSSWVFGGGTRLTVL
# notes: as for B3
# B14: Fab A11 (Fab, V domains shown)
# VH: EVQLVQSGAEVKRPGASVKVSCKASGYTFTSYGIGWVRQAPGQGLEWMGWISAYSGNTNYAQNFQGRITMTTDTSTSTAYMELRSLRSDDTAVYYCARDFGKWDLPMYGMDVWGQGTTVTVSS
# VL: QSVLTQPPSVSVAPGGTARISCGGNNIGTKNVHWYQQKPGQAPVLVMYYNSDRPAGIPERFSGSNSGNTATLTITRVEPGDEADYYCQVWDDRRDHYVFGTGTEVTVL
# notes: as for B3
# B15: Fab A9 (Fab, V domains shown)
# VH: EVQLVQSGAEVRNPGASVKVSCKASGYTFTSHGINWLRQAPGQGLEWMGWISAYSGNTNYAQNLQDRVSMTTDTSTSTAYMELRSLRSDDTAVYYCARDFGKWDLPMYGMDVWGQGTTVTVSS
# VL: QSVLTQPPSVSAAPGQRVTISCSGSSSDIGKSGKNYVAWYQQLPGMAPKLLIHDTIKRPSGIPDRFSASKSGTSATLDITGLQTGDEGDYYCGTWNNNLSAYVFGTGTTITVL
# notes: as for B3
# Tests used:
# [1] = target: T1, HLA A*2402 presenting HCMV pp65 peptide … on cells (Homo sapiens HLA-A*24:02/B2M; HCMV pp65 …, strain); assay: flow cytometry on cells; conditions: one partner purified
# T1 construct: copies: + +
# [2] = target: T2, biotinylated HLA A*2402/HCMV pp65 peptide … complex (Homo sapiens HLA-A*24:02/B2M; HCMV pp65 …, strain, biotin (in vivo, BirA, AviTag)); assay: ELISA; conditions: both partners purified
# T2 construct: copies: + +
# [3] = target: T3, biotinylated HLA B*0801/HCMV IE1 peptide … complex (Homo sapiens HLA-B*08:01 and B2M; HCMV …, strain, biotin (in vivo, BirA, AviTag)); assay: ELISA; conditions: both partners purified
# T3 construct: copies: + +
# [4] = target: T4, HLA A*0201 presenting the HCMV pp65 peptide […], on cells (human HLA-A*02:01 and B2M; HCMV pp65 …, strain); assay: flow cytometry on cells; conditions: one partner purified
# T4 construct: copies: + +
# [5] = target: T5, HLA A*0201 on MRC-5 cells loaded with control peptide 13 (…, Trypanosoma cruzi KMP-11) (human HLA-A*02:01 and B2M; Trypanosoma …, strain); assay: flow cytometry on cells; conditions: one partner purified
# T5 construct: copies: + +
# [6] = target: T6, biotinylated HLA A*0201/HCMV pp65 peptide […] complex (human HLA-A*02:01 and B2M; HCMV pp65 …, strain, biotin (in vivo, BirA, AviTag)); assay: ELISA; conditions: both partners purified
# T6 construct: copies: + +
# [7] = target: T7, biotinylated HLA A*0101/HCMV pp65 peptide […] complex (human HLA-A*01:01 and B2M; HCMV pp65 …, strain, biotin (in vivo, BirA, AviTag)); assay: ELISA; conditions: both partners purified
# T7 construct: copies: + +
# [8] = target: T8, HLA B*0702 presenting HCMV pp65 peptide … on cells (Homo sapiens HLA-B*07:02/B2M; HCMV pp65 …, strain); assay: flow cytometry on cells; conditions: one partner purified
# T8 construct: copies: + +
# [9] = target: T9, biotinylated HLA B*0702/HCMV pp65 peptide … complex (Homo sapiens HLA-B*07:02/B2M; HCMV pp65 …, strain, biotin (in vivo, BirA, AviTag)); assay: ELISA; conditions: both partners purified
# T9 construct: copies: + +
# [10] = target: T10, biotinylated HLA B*3501/HCMV pp65 peptide … complex (Homo sapiens HLA-B*35:01 and B2M; HCMV …, strain, biotin (in vivo, BirA, AviTag)); assay: ELISA; conditions: both partners purified
# T10 construct: copies: + +
# [11] = target: T11, HLA B*3501 presenting HCMV pp65 peptide … on cells (Homo sapiens HLA-B*35:01 and B2M on …, strain); assay: flow cytometry on cells; conditions: one partner purified
# T11 construct: copies: + +
binder,measurement,setting,value
B1,binding result,[1],binds
B2,binding result,[2],binds
B3,binding result,[3],binds
B4,binding result,[4],binds
same,binding result,[5],no binding (tested: 50 µg/ml)
B5,binding result,[6],binds
B6,binding result,[7],binds
B7,binding result,[8],binds
B8,binding result,[9],binds
B9,binding result,[10],binds
B10,binding result,[11],binds
B11,binding result,[8],binds
B12,binding result,[9],binds
B13,binding result,[7],binds
B14,binding result,[6],binds
B15,binding result,[6],binds
